According to the supplement of paper PMC6755084:

B1: F1*; the commonest letter at each place (parent)
chain: GAGACCGCAACTGAAAAGTTGTTATCACTTGTCGTAAGACACTTTGGATGGGTTGAAGTTCTGCACGTAGAAGCAAAAGGC

Variants of: B1
Assay: fraction ligated after 30 min (ligated reads / total reads); higher = more ligase activity
Conditions: with F1*sub RNA substrate (template-directed ligation), 42 °C
In short: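 Oligo-pool templates underwent PCR amplification, T7 transcription and gel purification to yield ribozyme variants. Gel-separated ligated and unligated bands were converted to complementary DNA with barcoded primers and sequenced on a MiSeq, keeping core bases of quality ≥20. The ratio of ligated reads to total reads gave the fraction ligated for every variant.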

Variant	fraction ligated
GAGACCGCAACTGAAAAGTTGTTATCACTTGTCGTAAGACACTTTGGATTGGTTGATGTTCTGCACGTAGAAGCAAAAGGC	0.324
GAGACCGCAACTGAAAAGTTGTTATCACTTGTCGTAAGACACTTTGGATTGGTTGAGGTTCTGCACGTAGAAGCAAAAGGC	0.526
GAGACCGCAACTGAAAAGTTGTTATCACTTGTCGTAAGACACTTTGGATTGGTTGACGTTCTGCACGTAGAAGCAAAAGGC	0.172
GAGACCGCAACTGAAAAGTTGTTATCACTTGTCGTAAGACACTTTGGTGGGGTTGAAGTTCTGCACGTAGAAGCAAAAGGC	0.348
GAGACCGCAACTGAAAAGTTGTTATCACTTGTCGTAAGACACTTTGGAGGGGTTGATGTTCTGCACGTAGAAGCAAAAGGC	0.706
GAGACCGCAACTGAAAAGTTGTTATCACTTGTCGTAAGACACTTTGGAGGGGTTGACGTTCTGCACGTAGAAGCAAAAGGC	0.523
GAGACCGCAACTGAAAAGTTGTTATCACTTGTCGTAAGACACTTTGGAGGGGTTGAGGTTCTGCACGTAGAAGCAAAAGGC	0.734
GAGACCGCAACTGAAAAGTTGTTATCACTTGTCGTAAGACACTTTGGATCGGTTGACGTTCTGCACGTAGAAGCAAAAGGC	0.033
GAGACCGCAACTGAAAAGTTGTTATCACTTGTCGTAAGACACTTTGGATCGGTTGAGGTTCTGCACGTAGAAGCAAAAGGC	0.104
GAGACCGCAACTGAAAAGTTGTTATCACTTGTCGTAAGACACTTTGGATCGGTTGATGTTCTGCACGTAGAAGCAAAAGGC	0.0648
GAGACCGCAACTGAAAAGTTGTTATCACTTGTCGTAAGACACTTTGGATAGGTTCAAGTTCTGCACGTAGAAGCAAAAGGC	0.0427
GAGACCGCAACTGAAAAGTTGTTATCACTTGTCGTAAGACACTTTGGATAGGTTAAAGTTCTGCACGTAGAAGCAAAAGGC	0.178
GAGACCGCAACTGAAAAGTTGTTATCACTTGTCGTAAGACACTTTGGATAGGTTTAAGTTCTGCACGTAGAAGCAAAAGGC	0.0307
GAGACCGCAACTGAAAAGTTGTTATCACTTGTCGTAAGACACTTTGGATTGGTTGGAGTTCTGCACGTAGAAGCAAAAGGC	0.0624
GAGACCGCAACTGAAAAGTTGTTATCACTTGTCGTAAGACACTTTGGATTGGTTGCAGTTCTGCACGTAGAAGCAAAAGGC	0.0586
GAGACCGCAACTGAAAAGTTGTTATCACTTGTCGTAAGACACTTTGGATTGGTTGTAGTTCTGCACGTAGAAGCAAAAGGC	0.0827
GAGACCGCAACTGAAAAGTTGTTATCACTTGTCGTAAGACACTTTGGAAGGGTTGACGTTCTGCACGTAGAAGCAAAAGGC	0.629

Variant	fraction ligated
GAGACCGCAACTGAAAAGTTGTTATCACTTGTCGTAAGACACTTTGGAAGGGTTGAGGTTCTGCACGTAGAAGCAAAAGGC	0.792
GAGACCGCAACTGAAAAGTTGTTATCACTTGTCGTAAGACACTTTGGAAGGGTTGATGTTCTGCACGTAGAAGCAAAAGGC	0.724
GAGACCGCAACTGAAAAGTTGTTATCACTTGTCGTAAGACACTTTGGAAGGGTTCAAGTTCTGCACGTAGAAGCAAAAGGC	0.129
GAGACCGCAACTGAAAAGTTGTTATCACTTGTCGTAAGACACTTTGGAAGGGTTTAAGTTCTGCACGTAGAAGCAAAAGGC	0.24
GAGACCGCAACTGAAAAGTTGTTATCACTTGTCGTAAGACACTTTGGAAGGGTTAAAGTTCTGCACGTAGAAGCAAAAGGC	0.62
GAGACCGCAACTGAAAAGTTGTTATCACTTGTCGTAAGACACTTTGGATTGGTTAAAGTTCTGCACGTAGAAGCAAAAGGC	0.455
GAGACCGCAACTGAAAAGTTGTTATCACTTGTCGTAAGACACTTTGGACGGGTTGACGTTCTGCACGTAGAAGCAAAAGGC	0.266
GAGACCGCAACTGAAAAGTTGTTATCACTTGTCGTAAGACACTTTGGACGGGTTGAGGTTCTGCACGTAGAAGCAAAAGGC	0.445
GAGACCGCAACTGAAAAGTTGTTATCACTTGTCGTAAGACACTTTGGACGGGTTGATGTTCTGCACGTAGAAGCAAAAGGC	0.3
GAGACCGCAACTGAAAAGTTGTTATCACTTGTCGTAAGACACTTTGGATAGGTTGATGTTCTGCACGTAGAAGCAAAAGGC	0.216
GAGACCGCAACTGAAAAGTTGTTATCACTTGTCGTAAGACACTTTGGATAGGTTGAGGTTCTGCACGTAGAAGCAAAAGGC	0.251
GAGACCGCAACTGAAAAGTTGTTATCACTTGTCGTAAGACACTTTGGATAGGTTGACGTTCTGCACGTAGAAGCAAAAGGC	0.0747
GAGACCGCAACTGAAAAGTTGTTATCACTTGTCGTAAGACACTTTGGAGTGGTTGAAGTTCTGCACGTAGAAGCAAAAGGC	0.667
GAGACCGCAACTGAAAAGTTGTTATCACTTGTCGTAAGACACTTTGGAGCGGTTGAAGTTCTGCACGTAGAAGCAAAAGGC	0.0713
GAGACCGCAACTGAAAAGTTGTTATCACTTGTCGTAAGACACTTTGGAGAGGTTGAAGTTCTGCACGTAGAAGCAAAAGGC	0.388
GAGACCGCAACTGAAAAGTTGTTATCACTTGTCGTAAGACACTTTGGACTGGTTGAAGTTCTGCACGTAGAAGCAAAAGGC	0.714
GAGACCGCAACTGAAAAGTTGTTATCACTTGTCGTAAGACACTTTGGACAGGTTGAAGTTCTGCACGTAGAAGCAAAAGGC	0.216
